# Laboratory results: US20070134724
# Tested on: tau
substance,measurement,value
Gleevec-resistant abl1 (T3611 form),"tyrosine phosphorylation of tau in the presence of Gleevec (western blot, ELISA)","In the presence of Gleevec, both forms could phosphorylate tau"
